Like-named read-outs stand apart in the source and are kept apart here.
Legend:
[1] = turbidity (absorbance at 395 nm); untagged recombinant EMD LCD 3xPro library, 60 μM LCD, transferred from denaturing to native Tris buffer (n=3); settings: other: turbidity (absorbance at 395 nm)
[2] = molecular target: T1, wild-type glutathione S-transferase (GST)-EMD LCD fusion protein; test: pull-down; wild-type GST-EMD LCD immobilized on glutathione resin, incubated with HA-tagged EMD LCD prey (50 nM), washed with binding buffer, eluted with GSH; Western blot against HA in eluent relative to input, densitometry (n=3)
T1 sequence (P50402 whole entry, species assumed, looked up): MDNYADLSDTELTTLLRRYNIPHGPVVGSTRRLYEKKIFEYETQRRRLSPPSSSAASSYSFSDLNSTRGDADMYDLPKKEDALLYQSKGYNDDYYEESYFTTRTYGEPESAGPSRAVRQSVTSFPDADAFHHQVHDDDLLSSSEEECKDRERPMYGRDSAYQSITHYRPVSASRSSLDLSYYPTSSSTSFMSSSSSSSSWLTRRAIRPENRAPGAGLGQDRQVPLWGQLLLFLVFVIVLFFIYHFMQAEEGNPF

[3] = molecular target: T1, wild-type glutathione S-transferase (GST)-EMD LCD fusion protein; test: GST pulldown, Western blot against HA, densitometry; settings: HA-tagged 3xPro EMD LCD prey 50 nM; n=3; parent: est. 0.26; read off a plot
P07196 = test: turbidity (absorbance at 395 nm); synthetic NEFL head domain 5xD ChIM library, 100 μM LCD (n=3); settings: other: turbidity (absorbance at 395 nm)
[4] = molecular target: T1, wild-type glutathione S-transferase (GST)-EMD LCD fusion protein; test: pull-down; wild-type GST-EMD LCD immobilized on glutathione resin, incubated with HA-tagged EMD LCD prey (50 nM), washed with binding buffer, eluted with GSH; Western blot against HA in eluent relative to input, densitometry (n=3); remark: listed apart in the source
P50402 = test: turbidity (absorbance at 395 nm); untagged semi-synthetic EMD LCD 3xD ChIM library, 50 μM LCD (n=3); settings: other: turbidity (absorbance at 395 nm)
[5] = molecular target: the molecule itself; test: as above

untagged EMD LCD 3xPro_(198-201)
fold decrease in turbidity relative to wild-type [1]: reduce turbidity by 107.6-, 16.6-, 34.7-, and 14.3-fold, respectively

HA-tagged EMD LCD 3xPro_(188-191) (domain or fragment)
fold reduction of pulldown relative to wild-type [2]: 5 fold

HA-tagged EMD LCD, wild-type (recombinant) 3xPro 178-181 (insertion, not substitution: ...aa178(Pro)aa179(Pro)aa180(Pro)aa181...)
response [3]: 0.21 Fraction IP

HA-tagged EMD LCD, wild-type (recombinant) 3xPro 208-211 (insertion, not substitution: ...aa208(Pro)aa209(Pro)aa210(Pro)aa211...)
response [3]: 0.21 Fraction IP

untagged EMD LCD 3xPro_(188-191)
fold decrease in turbidity relative to wild-type [1]: reduce turbidity by 107.6-, 16.6-, 34.7-, and 14.3-fold, respectively

HA-tagged EMD LCD 3xPro_(183-186) (domain or fragment)
fold reduction of pulldown relative to wild-type [2]: 2.2 fold

HA-tagged EMD LCD, wild-type (recombinant) 3xPro 203-205 (label as printed; insertion of three prolines, not substitution)
response [3]: 0.18 Fraction IP

untagged EMD LCD 3xPro_(183-186)
fold decrease in turbidity relative to wild-type [1]: modestly reduces turbidity by 2.8-fold relative to wild-type

untagged EMD LCD 3xPro_(193-196)
fold decrease in turbidity relative to wild-type [1]: reduce turbidity by 107.6-, 16.6-, 34.7-, and 14.3-fold, respectively

HA-tagged EMD LCD 3xPro_(198-201) (domain or fragment)
fold reduction of pulldown relative to wild-type [2]: 3.4 fold

HA-tagged EMD LCD 3xPro_(193-196) (domain or fragment)
fold reduction of pulldown relative to wild-type [2]: 5.9 fold

untagged EMD LCD 3xPro_(203-206)
fold decrease in turbidity relative to wild-type [1]: reduce turbidity by 107.6-, 16.6-, 34.7-, and 14.3-fold, respectively

B1: synthetic NEFL head domain 5xD_(22-30) (protein)
chain: SSFSYEPYYSTSYKRRYVETPRVHISSVRCGYSTARSAYSSYSAPVSSSLSVRRSYSSSSGSLMPSLENLELS
fold decrease in turbidity relative to wild-type (P07196): with 9.1-fold and 20-fold decreases in turbidity relative to wild-type, respectively

B2: synthetic NEFL head domain 5xD_(33-41) (protein)
chain: SSFSYEPYYSTSYKRRYVETPRVHISSVRCGYSTARSAYSSYSAPVSSSLSVRRSYSSSSGSLMPSLENLELS
fold decrease in turbidity relative to wild-type (P07196): with 9.1-fold and 20-fold decreases in turbidity relative to wild-type, respectively

B3: synthetic NEFL head domain 5xD_(53-63) (protein)
chain: SSFSYEPYYSTSYKRRYVETPRVHISSVRCGYSTARSAYSSYSAPVSSSLSVRRSYSSSSGSLMPSLENLELS
fold decrease in turbidity relative to wild-type (P07196): with 2.7-fold, 1.6-fold, and 1-fold relative decreases in turbidity, respectively

B4: synthetic NEFL head domain 5xD_(63-71) (protein)
chain: SSFSYEPYYSTSYKRRYVETPRVHISSVRCGYSTARSAYSSYSAPVSSSLSVRRSYSSSSGSLMPSLENLELS
fold decrease in turbidity relative to wild-type (P07196): with 2.7-fold, 1.6-fold, and 1-fold relative decreases in turbidity, respectively

B5: synthetic NEFL head domain 5xD_(43-51) (protein)
chain: SSFSYEPYYSTSYKRRYVETPRVHISSVRCGYSTARSAYSSYSAPVSSSLSVRRSYSSSSGSLMPSLENLELS
fold decrease in turbidity relative to wild-type (P07196): with 2.7-fold, 1.6-fold, and 1-fold relative decreases in turbidity, respectively

B6: HA-tagged semi-synthetic EMD LCD 3xD_(191-195) (domain or fragment)
chain: RRLSPPSSSAASSYSFSDLNSTRGDADMYDLPKKEDALLYQSKGYNDDYYEESYFTTRTYGEPESAGPSRAVRQSVTSFPDADAFHHQVHDDDLLSSSEEECKDRERPMYGRDSAYQSITHYRPVSASRSSLDLSYYPTSSSTCFMSSSSSSSSWLTRRAIRPENRAPGAGLGQER
modifications: three D-amino acids at alternating positions within 191-195
fold reduction of pulldown relative to wild-type [4]: 8.8 fold

B7: HA-tagged semi-synthetic EMD LCD 3xD_(203-207) (domain or fragment)
chain: RRLSPPSSSAASSYSFSDLNSTRGDADMYDLPKKEDALLYQSKGYNDDYYEESYFTTRTYGEPESAGPSRAVRQSVTSFPDADAFHHQVHDDDLLSSSEEECKDRERPMYGRDSAYQSITHYRPVSASRSSLDLSYYPTSSSTCFMSSSSSSSSWLTRRAIRPENRAPGAGLGQER
modifications: three D-amino acids at alternating positions within 203-207
fold reduction of pulldown relative to wild-type [4]: 3.6 fold

B8: HA-tagged semi-synthetic EMD LCD 3xD_(211-215) (domain or fragment)
chain: RRLSPPSSSAASSYSFSDLNSTRGDADMYDLPKKEDALLYQSKGYNDDYYEESYFTTRTYGEPESAGPSRAVRQSVTSFPDADAFHHQVHDDDLLSSSEEECKDRERPMYGRDSAYQSITHYRPVSASRSSLDLSYYPTSSSTCFMSSSSSSSSWLTRRAIRPENRAPGAGLGQER
modifications: three D-amino acids at alternating positions within 211-215
fold reduction of pulldown relative to wild-type [4]: 1.7 fold

B9: untagged semi-synthetic EMD LCD 3xD_(199-203) (protein)
chain: RRLSPPSSSAASSYSFSDLNSTRGDADMYDLPKKEDALLYQSKGYNDDYYEESYFTTRTYGEPESAGPSRAVRQSVTSFPDADAFHHQVHDDDLLSSSEEECKDRERPMYGRDSAYQSITHYRPVSASRSSLDLSYYPTSSSTCFMSSSSSSSSWLTRRAIRPENRAPGAGLGQER
fold decrease in turbidity relative to wild-type (P50402): 13.3-, 2.8-, and 2.1-fold decreases in turbidity

B10: untagged semi-synthetic EMD LCD 3xD_(195-199) (protein)
chain: RRLSPPSSSAASSYSFSDLNSTRGDADMYDLPKKEDALLYQSKGYNDDYYEESYFTTRTYGEPESAGPSRAVRQSVTSFPDADAFHHQVHDDDLLSSSEEECKDRERPMYGRDSAYQSITHYRPVSASRSSLDLSYYPTSSSTCFMSSSSSSSSWLTRRAIRPENRAPGAGLGQER
fold decrease in turbidity relative to wild-type (P50402): 13.3-, 2.8-, and 2.1-fold decreases in turbidity

B11: HA-tagged semi-synthetic EMD LCD 3xD_(195-199) (domain or fragment)
chain: RRLSPPSSSAASSYSFSDLNSTRGDADMYDLPKKEDALLYQSKGYNDDYYEESYFTTRTYGEPESAGPSRAVRQSVTSFPDADAFHHQVHDDDLLSSSEEECKDRERPMYGRDSAYQSITHYRPVSASRSSLDLSYYPTSSSTCFMSSSSSSSSWLTRRAIRPENRAPGAGLGQER
modifications: three D-amino acids at alternating positions within 195-199
fold reduction of pulldown relative to wild-type [4]: 7.9 fold

B12: untagged semi-synthetic EMD LCD 3xD_(203-207) (protein)
chain: RRLSPPSSSAASSYSFSDLNSTRGDADMYDLPKKEDALLYQSKGYNDDYYEESYFTTRTYGEPESAGPSRAVRQSVTSFPDADAFHHQVHDDDLLSSSEEECKDRERPMYGRDSAYQSITHYRPVSASRSSLDLSYYPTSSSTCFMSSSSSSSSWLTRRAIRPENRAPGAGLGQER
fold decrease in turbidity relative to wild-type (P50402): displays a modest 1.4-fold decrease in turbidity

B13: untagged semi-synthetic EMD LCD 3xD_(191-195) (protein)
chain: RRLSPPSSSAASSYSFSDLNSTRGDADMYDLPKKEDALLYQSKGYNDDYYEESYFTTRTYGEPESAGPSRAVRQSVTSFPDADAFHHQVHDDDLLSSSEEECKDRERPMYGRDSAYQSITHYRPVSASRSSLDLSYYPTSSSTCFMSSSSSSSSWLTRRAIRPENRAPGAGLGQER
fold decrease in turbidity relative to wild-type (P50402): 13.3-, 2.8-, and 2.1-fold decreases in turbidity

B14: HA-tagged semi-synthetic EMD LCD 3xD_(199-203) (domain or fragment)
chain: RRLSPPSSSAASSYSFSDLNSTRGDADMYDLPKKEDALLYQSKGYNDDYYEESYFTTRTYGEPESAGPSRAVRQSVTSFPDADAFHHQVHDDDLLSSSEEECKDRERPMYGRDSAYQSITHYRPVSASRSSLDLSYYPTSSSTCFMSSSSSSSSWLTRRAIRPENRAPGAGLGQER
modifications: three D-amino acids at alternating positions within 199-203
fold reduction of pulldown relative to wild-type [4]: 6.2 fold

B15: untagged semi-synthetic EMD LCD (residues 46-221), all L- wild-type (domain or fragment, UniProt P50402 46-221, looked up)
chain: RRLSPPSSSAASSYSFSDLNSTRGDADMYDLPKKEDALLYQSKGYNDDYYEESYFTTRTYGEPESAGPSRAVRQSVTSFPDADAFHHQVHDDDLLSSSEEECKDRERPMYGRDSAYQSITHYRPVSASRSSLDLSYYPTSSSTCFMSSSSSSSSWLTRRAIRPENRAPGAGLGQER
notes: Emerin (EMD) low-complexity domain, residues 46-221 (P1 46-188 recombinant, P2 189-221 synthetic); P2 made on Rink amide resin (C-terminal amide surmised); source: RP-HPLC purified
binding result [5]: binds

B16: HA-tagged semi-synthetic EMD LCD 3xD_(207-211) (domain or fragment)
chain: RRLSPPSSSAASSYSFSDLNSTRGDADMYDLPKKEDALLYQSKGYNDDYYEESYFTTRTYGEPESAGPSRAVRQSVTSFPDADAFHHQVHDDDLLSSSEEECKDRERPMYGRDSAYQSITHYRPVSASRSSLDLSYYPTSSSTCFMSSSSSSSSWLTRRAIRPENRAPGAGLGQER
modifications: three D-amino acids at alternating positions within 207-211
fold reduction of pulldown relative to wild-type [4]: 1.8 fold

Reference: publication doi:10.64898/2025.12.17.694949, “Chiral inversion mutagenesis identifies geometrically constrained residues within self-associating low-complexity domains” (bioRxiv, 2025)
